# Assay results taken from patent US20250361268A1, “NOVEL ANTI-INFLAMMATORY PEPTIDE AND USE THEREOF” (NOVACELL TECHNOLOGY INC., priority 2022, published 2025).
# T1: formyl peptide receptor 2 (FPR2) (UniProt P25090 1-351, limits assumed)
# T1 sequence (looked up): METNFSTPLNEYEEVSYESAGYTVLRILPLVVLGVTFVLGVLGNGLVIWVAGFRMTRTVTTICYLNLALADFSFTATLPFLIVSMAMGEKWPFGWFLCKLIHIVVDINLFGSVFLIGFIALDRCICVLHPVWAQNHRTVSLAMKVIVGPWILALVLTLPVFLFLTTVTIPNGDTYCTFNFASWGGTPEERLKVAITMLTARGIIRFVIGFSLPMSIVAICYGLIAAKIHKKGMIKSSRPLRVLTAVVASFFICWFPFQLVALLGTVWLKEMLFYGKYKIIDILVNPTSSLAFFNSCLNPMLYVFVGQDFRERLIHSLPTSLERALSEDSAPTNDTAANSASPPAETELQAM
# T2: FPR1 (UniProt P21462 1-350, limits assumed)
# T2 sequence (looked up): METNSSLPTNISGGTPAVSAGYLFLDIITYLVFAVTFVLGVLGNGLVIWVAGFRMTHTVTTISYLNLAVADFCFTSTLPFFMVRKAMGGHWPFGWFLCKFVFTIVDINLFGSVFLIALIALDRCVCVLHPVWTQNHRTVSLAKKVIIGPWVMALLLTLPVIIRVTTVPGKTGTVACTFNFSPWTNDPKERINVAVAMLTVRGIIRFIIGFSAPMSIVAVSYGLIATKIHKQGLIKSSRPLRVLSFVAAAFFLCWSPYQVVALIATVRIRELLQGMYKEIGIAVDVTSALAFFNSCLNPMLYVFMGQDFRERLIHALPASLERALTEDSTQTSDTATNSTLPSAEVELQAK
# B1: peptide of SEQ ID NO 78 (peptide)
# peptide: RWRYWYM
# HELM: PEPTIDE1{[ac].R.W.R.Y.W.Y.[dM].[am]}$$$$V2.0
# SMILES: CSCC[C@@H](NC(=O)[C@H](Cc1ccc(O)cc1)NC(=O)[C@H](Cc1c[nH]c2ccccc12)NC(=O)[C@H](Cc1ccc(O)cc1)NC(=O)[C@H](CCCNC(=N)N)NC(=O)[C@H](Cc1c[nH]c2ccccc12)NC(=O)[C@H](CCCNC(=N)N)NC(C)=O)C(N)=O
# B2: peptide of SEQ ID NO 80 (peptide)
# peptide: KWKYWYM
# HELM: PEPTIDE1{[ac].K.W.K.Y.W.Y.[dM].[am]}$$$$V2.0
# SMILES: CSCC[C@@H](NC(=O)[C@H](Cc1ccc(O)cc1)NC(=O)[C@H](Cc1c[nH]c2ccccc12)NC(=O)[C@H](Cc1ccc(O)cc1)NC(=O)[C@H](CCCCN)NC(=O)[C@H](Cc1c[nH]c2ccccc12)NC(=O)[C@H](CCCCN)NC(C)=O)C(N)=O
# B3: peptide of SEQ ID NO 74 (peptide)
# peptide: RWRYKPM
# HELM: PEPTIDE1{R.W.R.Y.K.P.[dM].[am]}$$$$V2.0; N-terminus assumed
# SMILES: CSCC[C@@H](NC(=O)[C@@H]1CCCN1C(=O)[C@H](CCCCN)NC(=O)[C@H](Cc1ccc(O)cc1)NC(=O)[C@H](CCCNC(=N)N)NC(=O)[C@H](Cc1c[nH]c2ccccc12)NC(=O)[C@@H](N)CCCNC(=N)N)C(N)=O
# B4: peptide of SEQ ID NO 82 (peptide)
# peptide: RMRYWYM
# HELM: PEPTIDE1{[ac].R.M.R.Y.W.Y.[dM].[am]}$$$$V2.0
# SMILES: CSCC[C@H](NC(=O)[C@H](CCCNC(=N)N)NC(C)=O)C(=O)N[C@@H](CCCNC(=N)N)C(=O)N[C@@H](Cc1ccc(O)cc1)C(=O)N[C@@H](Cc1c[nH]c2ccccc12)C(=O)N[C@@H](Cc1ccc(O)cc1)C(=O)N[C@H](CCSC)C(N)=O
# B5: peptide of SEQ ID NO 68 (peptide)
# peptide: KMKYKPM
# HELM: PEPTIDE1{[CCCC(=O)[*:2]].K.M.K.Y.K.P.[dM].[am]}$$$$V2.0
# SMILES: CCCC(=O)N[C@@H](CCCCN)C(=O)N[C@@H](CCSC)C(=O)N[C@@H](CCCCN)C(=O)N[C@@H](Cc1ccc(O)cc1)C(=O)N[C@@H](CCCCN)C(=O)N1CCC[C@H]1C(=O)N[C@H](CCSC)C(N)=O
# B6: peptide of SEQ ID NO 70 (peptide)
# peptide: MKYKPM
# HELM: PEPTIDE1{M.K.Y.K.P.[dM].[am]}$$$$V2.0; N-terminus assumed
# SMILES: CSCC[C@H](N)C(=O)N[C@@H](CCCCN)C(=O)N[C@@H](Cc1ccc(O)cc1)C(=O)N[C@@H](CCCCN)C(=O)N1CCC[C@H]1C(=O)N[C@H](CCSC)C(N)=O
# B7: peptide of SEQ ID NO 81 (peptide)
# peptide: RMRYWYM
# HELM: PEPTIDE1{R.M.R.Y.W.Y.[dM].[am]}$$$$V2.0; N-terminus assumed
# SMILES: CSCC[C@H](NC(=O)[C@@H](N)CCCNC(=N)N)C(=O)N[C@@H](CCCNC(=N)N)C(=O)N[C@@H](Cc1ccc(O)cc1)C(=O)N[C@@H](Cc1c[nH]c2ccccc12)C(=O)N[C@@H](Cc1ccc(O)cc1)C(=O)N[C@H](CCSC)C(N)=O
# B8: peptide of SEQ ID NO 67 (peptide)
# peptide: KMKYKPM
# HELM: PEPTIDE1{[ac].K.M.K.Y.K.P.[dM].[am]}$$$$V2.0
# SMILES: CSCC[C@H](NC(=O)[C@H](CCCCN)NC(C)=O)C(=O)N[C@@H](CCCCN)C(=O)N[C@@H](Cc1ccc(O)cc1)C(=O)N[C@@H](CCCCN)C(=O)N1CCC[C@H]1C(=O)N[C@H](CCSC)C(N)=O
# Biological target: T1, formyl peptide receptor 2 (FPR2)
# Experiment: cell-based or functional assay
row,EC50 for [Ca2+] [µM],Binder
1,< 0.01,B1
2,< 0.01,B2
3,< 0.01,B3
4,< 0.01,B4
5,< 0.01,B5
6,< 0.01,B6
7,< 0.01,B7
8,< 0.01,B8

# Biological target: T2, FPR1
# Experiment: cell-based or functional assay
row,EC50 for [Ca2+] [µM],Binder
1,> 10,B1
2,> 10,B2
3,> 10,B3
4,> 10,B4
5,> 10,B5
6,> 10,B6
7,> 10,B7
8,> 10,B8
